From patent US20240390423A1 (published 2024)

T1: CTNNB1 S37F peptide on HLA-A*02:01 (human)
T1 peptide: YLDSGIHFGA

T2: CTNNB1 wild type (S37) peptide on HLA-A*02:01 (human)
T2 peptide: YLDSGIHSGA

B1: CTNNB1^S37F peptide specific TCR (the inventive TCR) (TCR, V domains shown)
Valpha: AQKVTQAQTEISVVEKEDVTLDCVYETRDTTYYLFWYKQPPSGELVFLIRRNSFDEQNEISGRYSWNFQKSTSSFNFTITASQVVDSAVYFCALSERPGYSTLTFGKGTMLLVSP
Vbeta: DAGVIQSPRHEVTEMGQEVTLRCKPISGHDYLFWYRQTMMRGLELLIYFNNNVPIDDSGMPEDRFSAKMPNASFSTLKIQPSEPRDSAVYFCASGTPSTYEQYFGPGTRLTVT
B2: inventive TCR specific for the mutated CTNNB1^S37F peptide in the context of HLA-A2, with murine constant regions, expressed from lentiviral vector pCDH-CTNNB1 … (TCR)
TCR alpha: AQKVTQAQTEISVVEKEDVTLDCVYETRDTTYYLFWYKQPPSGELVFLIRRNSFDEQNEISGRYSWNFQKSTSSFNFTITASQVVDSAVYFCALSERPGYSTLTFGKGTMLLVSPDIQNPEPAVYQLKDPRSQDSTLCLFTDFDSQINVPKTMESGTFITDKTVLDMKAMDSKSNGAIAWSNQTSFTCQDIFKETNATYPSSDVPCDATLTEKSFETDMNLNFQNLSVMGLRILLLKVAGFNLLMTLRLWSS
TCR beta: DAGVIQSPRHEVTEMGQEVTLRCKPISGHDYLFWYRQTMMRGLELLIYFNNNVPIDDSGMPEDRFSAKMPNASFSTLKIQPSEPRDSAVYFCASGTPSTYEQYFGPGTRLTVTEDLRNVTPPKVSLFEPSKAEIANKQKATLVCLARGFFPDHVELSWWVNGKEVHSGVSTDPQAYKESNYSYCLSSRLRVSATFWHNPRNHFRCQVQFHGLSEEDKWPEGSPKPVTQNISAEAWGRADCGITSASYQQGVLSATILYEILLGKATLYAVLVSTLVVMAMVKRKNS

Columns and labels:
[1] = target: T1, CTNNB1 S37F peptide on HLA-A*02:01; assay: CD137 by flow cytometry on GFP+ CD8+ PBMC-derived T cells transduced with pCDH-CTNNB1; T2 cells pulsed with a 10x dilution series of peptide from 1 µg/ml, 24 h; dose-dependent; full-length, on cells
[2] = target: T2, CTNNB1 wild type (S37) peptide on …; assay: activation reporter or marker
[3] = target: T1, CTNNB1 S37F peptide on HLA-A*02:01; assay: CD69 by flow cytometry on GFP+ JRT (J.RT3-T3.5) cells transduced with pCDH-CTNNB1; T2 cells pulsed with a 10x dilution series of peptide from 1 µg/ml, 16 h; dose-dependent; full-length, on cells
[4] = target: mutated CTNNB1^S37F peptide presented by HLA-A2 on target cells (T2 cells pulsed with the peptide; HUTU80 tumor cells with endogenous CTNNB1^S37F) (human); assay: cell-based or functional assay

Binder | lowest activating peptide concentration (twofold CD8+CD137+ over no peptide) [1] [ng/mL] | binding result [2] | lowest activating peptide concentration (twofold CD69+ over no peptide) [3] [ng/mL] | percentage of CD8+CD137+ cells in gated GFP+ transduced PBMC T cells after 24 h co-culture with peptide-pulsed T2 cells; lowest peptide concentration giving a twofold increase over no peptide [4] [ng/mL] | percentage of CD69+ cells in gated GFP+ JRT cells after 16 h co-culture with peptide-pulsed T2 cells; lowest peptide concentration giving a twofold increase over no peptide [4] [ng/mL]
B1 | 1 | no recognition | ~0.5 |  | 
B2 |  |  |  | 1 | 0.5
